Where a chain is given by its changes, count along the chain named.
B1: SEQ ID NO 247 (designed binder)
chain: MLPAPKNLVVSRVTEDSARLSWTAPDAAFDSFYIEWTYKGEAIVLTVPGSERSYDLTGLKPGTEYFVGIPGVKGGKSSYPLSAIFTT
B2: SEQ ID NO 248 (designed binder)
chain: MGSLPAPKNLVVSRVTEDSARLSWTAPDAAFDSFAIPYAEPSPTGEAIVLTVPGSERSYDLTGLKPGTEYPVWIQGVKGGSPSAPLSAEFTT
B3: SEQ ID NO 238 (designed binder)
chain: MLPAPKNLVVSRVTEDSARLSWTAPDAAFDSFKIFYQEFGGEAIVLTVPGSERSYDLTGLKPGTEYWVDIYGVKGGYTSSPLSAIFTT
B4: SEQ ID NO 239 (designed binder)
chain: MLPAPKNLVVSRVTEDSARLSWTAPDAAFDSFAITYYEGRWRGEAIVLTVPGSERSYDLTGLKPGTEYGVPIRGVKGGTGSLPLSAIFTT
B5: SEQ ID NO 244 (designed binder)
chain: MLPAPKNLVVSRVTEDSARLSWTAPDAAFDSFHIDYSEFHLRGEAIVLTVPGSERSYDLTGLKPGTEYLGIFGVKGGEQSGPLSAIFTT
B6: SEQ ID NO 47 (designed binder)
chain: MLPAPKNLVVSRVTEDSARLSWTAPDAAFDSFTIWYAEALGDGEAIVLTVPGSERSYDLTGLKPGTEYFVDIYGVKGGFWSLPLSAIFTT
B7: SEQ ID NO 218 (designed binder)
chain: B6 chain with W35L, A37Y, A39M, L40V, D42E, L62P, F69W, F79G, L82R
B8: SEQ ID NO 223 (designed binder)
chain: B6 chain with Y73P, F79T, W80R, L82S, F88S
B9: SEQ ID NO 211 (designed binder)
chain: B4 chain with A33W, T35N, G39A, R40Q, W41P, R42D, G69D, P71E, R73A, G80A
B10: SEQ ID NO 51 (designed binder)
chain: B6 chain with T33F, W35K, A37I, A39W, L40W, G41A, F69L, D71E, F79K, L82W
B11: SEQ ID NO 235 (designed binder)
chain: MLPAPKNLVVSRVTEDSARLSWTAPDAAFDSFSINYREWWSDGEAIYLPVPGSERSYDLTGLKPGTEYAVYIQGVKGGSRSFPLHAWFTT
B12: SEQ ID NO 220 (designed binder)
chain: MLPAPKNLVVSRVTEDSARLSWTAPDAAFDSFHIIYEEDGTEGEAIYLRVPGSERSYDLTGLKPGTEYEVDIEGVKGGVLSWPLFAEFTT
B13: SEQ ID NO 226 (designed binder)
chain: B12 chain with D39V, G40L, E69G, D71T, E73K, V79A, L80Y, W82I, F85I, E87T
B14: SEQ ID NO 49 (designed binder)
chain: MLPAPKNLVVSRVTEDSARLSWTAPDAAFDSFGISYLEWWEDGEAIVLTVPGSERSYDLTGLKPGTEYWVSIAGVKGGKRSYPLSAIFTT
B15: SEQ ID NO 227 (designed binder)
chain: B14 chain with G33R, S35R, E41N, D42I, W69H, S71D, A73W, K79Y, R80S
B16: SEQ ID NO 229 (designed binder)
chain: B14 chain with G33S, S35H, L37D, W39D, E41R, D42R, W69L, S71E, A73P, R80A
B17: SEQ ID NO 240 (designed binder)
chain: B14 chain with G33R, S35K, E41L, D42G, S71D, A73Q, K79V, R80L, Y82W
B18: SEQ ID NO 242 (designed binder)
chain: B14 chain with G33P, S35K, E41S, D42W, W69R, S71P, A73S, K79G, R80M, Y82G
B19: SEQ ID NO 207 (designed binder)
chain: MLPAPKNLVVSRVTEDSARLSWTAPDAAFDSFFIGYLEPQPPGEAIVLTVPGSERSYDLTGLKPGTEYNVTIQGVKGGTPSEPLSAISTT
B20: SEQ ID NO 250 (designed binder)
chain: B19 chain with Q40Y, N69A, T71E, Q73A, T79L, P80L, E82S
B21: SEQ ID NO 208 (designed binder)
chain: MLPAPKNLVVSRVTEDSARLSWTAPDAAFDSFGIVYREPYVGGEAIVLTVPGSERSYDLTGLKPGTEYGVPIPGVKGGYDSGPLSAIFTT
B22: SEQ ID NO 214 (designed binder)
chain: MLPAPKNLVVSRVTEDSARLSWTAPDAAFDSFAIPYGERQELGEAIVLTVPGSERSYDLTGLKPGTEYFVVIQGVKGGQPSYPLSAIFTT
B23: SEQ ID NO 245 (designed binder)
chain: MLPAPKNLVVSRITEDSARLSWTAPDAAFDSFGIAYNEGDHYGEAIVLTVPGSERSYDLTGLKPGTEYSVWIEGVKGGNLSYPLSAIFTT
B24: SEQ ID NO 246 (designed binder)
chain: B23 chain with I13V, G33T, G39Q, D40N, S69G, N79T, Y82W
B25: SEQ ID NO 206 (designed binder)
chain: MLPAPKNLVVSRVTEDSARLSWTAPDAAFDSFDIEYDELWKNGEAIVLTVPGSERSYDLTGLKPGTEYRVFIYGVKGGYGSFPLSAIFTT
B26: SEQ ID NO 219 (designed binder)
chain: B25 chain with D33H, E35D, D37L, W40T, K41Y, N42A, R69Y, F71T, G80P, F82S
B27: SEQ ID NO 210 (designed binder)
chain: MLPAPKNLVVSRVTEDSARLSWTAPDAAFDSFSIVYGERFVNGEAIVLTVPGSERSYDLTGLKPGTEYHVYIDGVKGGDLSWPLSAIFTT
B28: SEQ ID NO 237 (designed binder)
chain: B27 chain with S33T, V35L, R39M, F40G, V41T, N42T, H69D, Y71F, D73E, D79E
B29: SEQ ID NO 241 (designed binder)
chain: B27 chain with S33N, V35Y, G37Y, R39W, N42S, H69F, Y71D, D79Y, L80R, W82R
B30: SEQ ID NO 212 (designed binder)
chain: MLPAPKNLVVSRVTEDSARLSWTAPDAAFDSFIIEYWEQIGVGEAIVLTVPGSERSYDLTGLKPGTEYWVGIYGVKGGLLSSPLSAIFTT
B31: SEQ ID NO 217 (designed binder)
chain: B30 chain with Q39W, I40Y, G41F, V42A, W69T, G71W, Y73T, L79T, L80W, S82E
B32: SEQ ID NO 222 (designed binder)
chain: B30 chain with I33Y, W37F, Q39W, I40T, V42S, W69N, G71A, L79A, L80V, S82Y
B33: SEQ ID NO 48 (designed binder)
chain: B30 chain with I33V, W37F, I40F, G41N, V42L, L79W, S82H
B34: SEQ ID NO 225 (designed binder)
chain: B30 chain with I33K, W37F, Q39Y, I40V, V42Y, W69Y, G71A, L79W, L80Y, S82R
B35: SEQ ID NO 230 (designed binder)
chain: MLPAPKNLVVSRVTEDSARLSWTAPDAAFDSFQIRYPKRWISGEAIVLTVPGSERSYDLTGLKPGTEYEVVIRGVKGGEYSWPLSAIFTT
B36: SEQ ID NO 213 (designed binder)
chain: MLPAPKNLVVSRVTEDSARLSWTAPDAAFDSFWIYYWEIERAGEAIRLDVPGSERSYDLTGLKPGTEYRVDIWGVKGGPTSGPLRATFTT
B37: SEQ ID NO 215 (designed binder)
chain: MLPAPKNLVVSRVTEDSARLSWTAPDAAFDSFLIPYAETSPTGEAIVLTVPGSERSYDLTGLKPGTEYSVLIHGVKGGYPSSPLSAIFTT
B38: SEQ ID NO 233 (designed binder)
chain: B37 chain with L33Y, P35V, T39P, S40I, T42N, Y79R, P80N, S82D
B39: SEQ ID NO 216 (designed binder)
chain: B37 chain with L33P, P35A, T39P, S40T, T42S, Y79G, P80L, S82L
B40: SEQ ID NO 231 (designed binder)
chain: MLPAPKNLVVSRVTEDSARLSWTAPDAAFDSFEIPYIETVALGEAIVLTVPGSERSYDLTGLKPGTEYYVEIYGVKGGSYSYPLSAISTT
B41: SEQ ID NO 221 (designed binder)
chain: MLPAPKNLVVSRVTEDSARLSWTAPDAAFDSFHISYQEVVAEGEAIYLRVPGSERSYDLTGLKPGTEYYVLIHGVKGGYESKPLDASFTT
B42: SEQ ID NO 224 (designed binder)
chain: MLLAPKNLVVSRVTEDSARLSWTAPDAAFDSFRYLEQGLYGEAIVLTVPGSERSYDLTGLKPGTEYWVEIIGVKGGEYSTPLSAIFTT

target: human serum albumin (human) (UniProt P02768); test: screening ELISA
Sequence (P02768 25-609 limits assumed): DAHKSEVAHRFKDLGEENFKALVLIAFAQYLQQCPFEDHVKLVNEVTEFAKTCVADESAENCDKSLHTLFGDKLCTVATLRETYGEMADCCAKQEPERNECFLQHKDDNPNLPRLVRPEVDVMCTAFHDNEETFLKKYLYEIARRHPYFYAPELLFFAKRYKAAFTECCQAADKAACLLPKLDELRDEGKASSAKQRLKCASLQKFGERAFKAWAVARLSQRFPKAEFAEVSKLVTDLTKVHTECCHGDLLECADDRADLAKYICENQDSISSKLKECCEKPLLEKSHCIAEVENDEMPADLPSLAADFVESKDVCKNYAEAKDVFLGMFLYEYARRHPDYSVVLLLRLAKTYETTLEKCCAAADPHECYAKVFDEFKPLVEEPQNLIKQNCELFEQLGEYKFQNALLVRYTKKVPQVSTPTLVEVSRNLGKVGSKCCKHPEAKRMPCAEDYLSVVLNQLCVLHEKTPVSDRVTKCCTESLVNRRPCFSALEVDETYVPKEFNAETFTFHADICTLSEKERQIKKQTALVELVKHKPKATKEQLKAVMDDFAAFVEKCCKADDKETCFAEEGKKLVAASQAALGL

Binder | HSA
B1 | 53000
B2 | 15100
B3 | 4250
B4 | 5050
B5 | 1650
B6 | 5200
B7 | 33800
B8 | 52000
B9 | 3000
B10 | 4240
B11 | 1350
B12 | 9400
B13 | 2850
B14 | 11500
B15 | 2300
B16 | 3700
B17 | 2050
B18 | 4900
B19 | 25600
B20 | 18800
B21 | 46700

Binder | HSA
B22 | 2200
B23 | 2900
B24 | 1400
B25 | 2650
B26 | 2600
B27 | 2250
B28 | 1850
B29 | 2200
B30 | 2250
B31 | 11800
B32 | 3950
B33 | 2800
B34 | 14100
B35 | 1900
B36 | 9800
B37 | 1750
B38 | 2600
B39 | 21800
B40 | 26500
B41 | 3650
B42 | 16500
